B1: AXIN1 peptide 235-250 (Axin-1), 16-mer library wild type / PP2A B56 (PPP2R5A B56 domain, residues 1-486) (parent complex)
chain 1: SGYLPTLNEDEEWKAD
chain 2: not shown

In the experiment the parent is B1. In words: proteomic peptide phage display deep mutational scan (ProP-PD DMS): M13 P8 16-mer library selected against immobilised GST-tagged bait for four days (rounds), NGS of the eluted pools per day and pseudo-replica; bait immobilised on MaxiSorp plates (10 µg), library pre-cleared on GST, 2 h binding at 4 °C, five washes; one round per day, days 1-4; value from days 2 and 3.
chain 1 W13V: the screen value was 0.000494 average fractional NGS count over selection days 2 and 3 (reads of this peptide / all reads for the bait, averaged over …. Then chain 1 D10I, with 0.00126 average fractional NGS count over selection days 2 and 3 (reads of this peptide / all reads for the bait, averaged over …. As for chain 1 D10S, the screen value was 0.000583 average fractional NGS count over selection days 2 and 3 (reads of this peptide / all reads for the bait, averaged over …. The result for chain 1 N8L reads 0.000128 average fractional NGS count over selection days 2 and 3 (reads of this peptide / all reads for the bait, averaged over …; that for chain 1 K14S, 0.000394 average fractional NGS count over selection days 2 and 3 (reads of this peptide / all reads for the bait, averaged over …; that for chain 1 Y3M, 0.000836 average fractional NGS count over selection days 2 and 3 (reads of this peptide / all reads for the bait, averaged over …. Then chain 1 Y3W, with 0.00058 average fractional NGS count over selection days 2 and 3 (reads of this peptide / all reads for the bait, averaged over …. For the variant chain 1 E12I, the screen value is 0.00181 average fractional NGS count over selection days 2 and 3 (reads of this peptide / all reads for the bait, averaged over …. Consider chain 1 E11H, for which the screen value is 0.000134 average fractional NGS count over selection days 2 and 3 (reads of this peptide / all reads for the bait, averaged over …. Then chain 1 E11M, with 0.00494 average fractional NGS count over selection days 2 and 3 (reads of this peptide / all reads for the bait, averaged over …. The result for chain 1 D16Q reads 0.00121 average fractional NGS count over selection days 2 and 3 (reads of this peptide / all reads for the bait, averaged over …; that for chain 1 D16A, 0.00219 average fractional NGS count over selection days 2 and 3 (reads of this peptide / all reads for the bait, averaged over …. Consider chain 1 A15H, for which the screen value was 0.00152 average fractional NGS count over selection days 2 and 3 (reads of this peptide / all reads for the bait, averaged over …. With chain 1 A15I, the screen value is 0.000279 average fractional NGS count over selection days 2 and 3 (reads of this peptide / all reads for the bait, averaged over ….

On to chain 1 A15E, for which the screen value was 0.000423 average fractional NGS count over selection days 2 and 3 (reads of this peptide / all reads for the bait, averaged over ….

Values taken from PMC12102759 (2025).
